Experiments:
[1] = target: T1, FMRP (full length, iso7) (Homo sapiens, UniProt Q06787-9 Q06787-9:3-605); test: filter; no binding detected
[2] = target: T2, FMRP C-terminus (distal to KH domains, contains RGG box) (Homo sapiens, UniProt Q06787-9 Q06787-9:402-605); test: filter; K+; abrogated in Li+; details: tags: N-terminal T7, C-terminal His (pET21b); label: 32P-UTP; G4
Method: To assess whether the RNAs listed in Table 1 bound FMRP in a G-quartet dependent manner, binding in the presence of Li⁺ versus K⁺ was assessed, and mutants in which the Hoogsteen paired Gs were changed to Cs were generated.

[3] = target: T1, FMRP (full length, iso7); test: filter; antisense control in K+
[4] = target: T1, FMRP (full length, iso7); test: filter; 5-6 nt stem sufficient for high affinity; boundaries mapped by alkaline hydrolysis/filter capture
[5] = target: T1, FMRP (full length, iso7); test: EMSA; 100 nM FMRP; supershifted by anti-FMRP mAb
[6] = target: FMRP I304N (KH2 mutant, full length) (Homo sapiens, UniProt Q06787-9 Q06787-9:3-605, I304N); test: filter; nearly as well as wild-type FMRP
[7] = target: FMRP N-terminus (Homo sapiens, UniProt Q06787-9 Q06787-9:3-218); test: filter; all sc1 binding activity in C-terminal domain; details: tags: N-terminal T7, C-terminal His (pET21b); label: 32P-UTP; stem-loop with intramolecular G4
[8] = target: T2, FMRP C-terminus (distal to KH domains, …); test: as above; details: tags: N-terminal T7, C-terminal His (pET21b); label: 32P-UTP; stem-loop with intramolecular G4
[9] = target: T1, FMRP (full length, iso7); test: filter; no effect versus sc1
[10] = target: T1, FMRP (full length, iso7); test: filter; severe decrease, undetectable
[11] = target: T1, FMRP (full length, iso7); test: filter; minimal effect

B1: sc1 conserved element only (ssRNA)
RNA: GUGGAAGGAGUGGCUGGG
binding result [1]: no binding

B2: Guanine nucleotide exchange factor (KIAA0763) 3'UTR site (ssRNA)
RNA: GGGGAGGCAGGAGGAGGCCGAGG
binding result [2]: binds

B3: Sec7-related GEF antisense transcript (ssRNA)
RNA: CCUCGGCCUCCUCCUGCCUCCCC
binding result [3]: no binding

B4: sc1 truncated with 5-6 nt stem (boundaries nt 23-57) (ssRNA)
RNA: GCUGCGGUGUGGAAGGAGUGGCUGGGUUGCGCACC
binding result [4]: binds

B5: sc1 (ssRNA)
RNA: GAGCGGCUGCGGUGUGGAAGGAGUGGCUGGGUUGCGCACCUUGGCUUC
binding result [5]: binds
binding result [6]: binds
binding result [7]: no binding
binding result [8]: binds

B6: sc1 C44G (ssRNA)
RNA: GAGCGGCUGCGGUGUGGAAGGAGUGGGUGGGUUGCGCACCUUGGCUUC
modifications: [none]
binding result [9]: binds

B7: sc1 A35A36 to CC (ssRNA)
RNA: GAGCGGCUGCGGUGUGGCCGGAGUGGCUGGGUUGCGCACCUUGGCUUC
modifications: [none]
binding result [10]: no binding

B8: sc1 U49U50 to AA (ssRNA)
RNA: GAGCGGCUGCGGUGUGGAAGGAGUGGCUGGGAAGCGCACCUUGGCUUC
modifications: [none]
binding signal [11]: < 20 fold decrease

B9: sc1 G38A (ssRNA)
RNA: GAGCGGCUGCGGUGUGGAAGAAGUGGCUGGGUUGCGCACCUUGGCUUC
modifications: [none]
binding signal [11]: < 20 fold decrease

From patent publication US20050130151, “Method and identification of downstream mrna ligands to fmrp and their role in fragile x syndrome and associated disorders” (Emory University, published 2005)
